Experimental data taken from US20230002480A1.

Experiments:
Assay in all cases: cell-based or functional assay
[1] = molecular target: HIV-1 Env of pseudovirus 3103.v3.c10 (clade ACD) (HIV-1)
[2] = molecular target: HIV-1 Env of pseudovirus 6041.v3.c23 (clade AC) (HIV-1)
[3] = molecular target: HIV-1 Env of pseudovirus 6480.v4.c25 (clade CD) (HIV-1)
[4] = molecular target: HIV-1 Env of pseudovirus 0815.v3.c3 (clade ACD) (HIV-1)
[5] = molecular target: HIV-1 Env of pseudovirus 6952.v1.c20 (clade CD) (HIV-1)
[6] = molecular target: HIV-1 Env of pseudovirus 6540.v4.c1 (clade AC) (HIV-1)
[7] = molecular target: HIV-1 Env of pseudovirus R2184.c04 (clade CRF01_AE) (HIV-1)
[8] = molecular target: HIV-1 Env of pseudovirus 231965.c01 (clade D) (HIV-1)
[9] = molecular target: HIV-1 Env of pseudovirus X2131_C1_B5 (clade G) (HIV-1)
[10] = molecular target: HIV-1 Env of pseudovirus 89-F1_2_25 (clade CD) (HIV-1)
[11] = molecular target: HIV-1 Env of pseudovirus 6811.v7.c18 (clade CD) (HIV-1)
[12] = molecular target: HIV-1 Env of pseudovirus TRO.11 (HIV-1)
[13] = molecular target: HIV-1 Env of pseudovirus 6545.v4.c1 (clade AC) (HIV-1)
[14] = molecular target: HIV-1 Env of pseudovirus P1981_C5_3 (clade G) (HIV-1)
[15] = molecular target: HIV-1 Env of pseudovirus X1632_S2_B10 (clade G) (HIV-1)
[16] = molecular target: HIV-1 Env of pseudovirus 1012_11_TC21_3257 (HIV-1)
[17] = molecular target: HIV-1 Env of pseudovirus 3016.v5.c45 (clade D) (HIV-1)
[18] = molecular target: HIV-1 Env of pseudovirus 3817.v2.c59 (clade CD) (HIV-1)
[19] = molecular target: HIV-1 Env of pseudovirus 3301.v1.c24 (clade AC) (HIV-1)
[20] = molecular target: HIV-1 Env of pseudovirus A07412M1.vrc12 (clade D) (HIV-1)
[21] = molecular target: HIV-1 Env of pseudovirus QH0692.42 (HIV-1)
[22] = molecular target: HIV-1 Env of pseudovirus C3347.c11 (clade CRF01_AE) (HIV-1)
[23] = molecular target: HIV-1 Env of pseudovirus 231966.c02 (clade D) (HIV-1)
[24] = molecular target: HIV-1 Env of pseudovirus 3415.v1.c1 (HIV-1)
[25] = molecular target: HIV-1 Env pseudovirus 231966.c02 (HIV-1)
[26] = molecular target: HIV-1 Env pseudovirus BJOX009000.02.4 (HIV-1)

Substance: PG9 (antibody)
- IC50, titer in TZM.bl cells [1]: 28 µg/mL
- IC80, titer in TZM.bl cells [1]: > 50 µg/mL
- IC50, titer in TZM.bl cells [2]: 0.244 µg/mL
- IC80, titer in TZM.bl cells [2]: 3.64 µg/mL
- IC50, titer in TZM.bl cells [3]: > 50 µg/mL
- IC80, titer in TZM.bl cells [3]: > 50 µg/mL
- IC50, titer in TZM.bl cells [4]: > 50 µg/mL
- IC80, titer in TZM.bl cells [4]: > 50 µg/mL
- IC50, titer in TZM.bl cells [5]: > 50 µg/mL
- IC80, titer in TZM.bl cells [5]: > 50 µg/mL
- IC50, titer in TZM.bl cells [6]: 0.07 µg/mL
- IC80, titer in TZM.bl cells [6]: 0.253 µg/mL
- IC50, titer in TZM.bl cells [7]: 0.255 µg/mL
- IC80, titer in TZM.bl cells [7]: 1.24 µg/mL
- IC50, titer in TZM.bl cells [8]: 1.28 µg/mL
- IC80, titer in TZM.bl cells [8]: 48 µg/mL
- IC50, titer in TZM.bl cells [9]: 0.084 µg/mL
- IC80, titer in TZM.bl cells [9]: 0.286 µg/mL
- IC50, titer in TZM.bl cells [10]: 0.668 µg/mL
- IC80, titer in TZM.bl cells [10]: 10.1 µg/mL
- IC50, titer in TZM.bl cells [11]: > 50 µg/mL
- IC80, titer in TZM.bl cells [11]: > 50 µg/mL
- IC50, titer in TZM.bl cells [12]: 43.2 µg/mL
- IC80, titer in TZM.bl cells [12]: > 50 µg/mL
- IC50, titer in TZM.bl cells [13]: 0.099 µg/mL
- IC80, titer in TZM.bl cells [13]: 0.351 µg/mL
- IC50, titer in TZM.bl cells [14]: 0.258 µg/mL
- IC80, titer in TZM.bl cells [14]: 2.51 µg/mL
- IC50, titer in TZM.bl cells [15]: 0.107 µg/mL
- IC80, titer in TZM.bl cells [15]: 0.934 µg/mL
- IC50, titer in TZM.bl cells [16]: 0.172 µg/mL
- IC80, titer in TZM.bl cells [16]: 0.605 µg/mL
- IC50, titer in TZM.bl cells [17]: 2.46 µg/mL
- IC80, titer in TZM.bl cells [17]: > 50 µg/mL
- IC50, titer in TZM.bl cells [18]: 0.02 µg/mL
- IC80, titer in TZM.bl cells [18]: 0.062 µg/mL
- IC50, titer in TZM.bl cells [19]: 0.216 µg/mL
- IC80, titer in TZM.bl cells [19]: 0.756 µg/mL
- IC50, titer in TZM.bl cells [20]: 0.697 µg/mL
- IC80, titer in TZM.bl cells [20]: 7.96 µg/mL
- IC50, titer in TZM.bl cells [21]: > 50 µg/mL
- IC80, titer in TZM.bl cells [21]: > 50 µg/mL
- IC50, titer in TZM.bl cells [22]: 0.032 µg/mL
- IC80, titer in TZM.bl cells [22]: 0.113 µg/mL
- IC50, titer in TZM.bl cells [23]: 0.075 µg/mL
- IC80, titer in TZM.bl cells [23]: 0.257 µg/mL

Substance: 10-1074 (antibody)
- IC50, titer in TZM.bl cells [1]: 0.037 µg/mL
- IC80, titer in TZM.bl cells [1]: 0.101 µg/mL
- IC50, titer in TZM.bl cells [2]: > 50 µg/mL
- IC80, titer in TZM.bl cells [2]: > 50 µg/mL
- IC50, titer in TZM.bl cells [3]: 0.009 µg/mL
- IC80, titer in TZM.bl cells [3]: 0.041 µg/mL
- IC50, titer in TZM.bl cells [4]: 0.03 µg/mL
- IC80, titer in TZM.bl cells [4]: 0.138 µg/mL
- IC50, titer in TZM.bl cells [5]: 0.037 µg/mL
- IC80, titer in TZM.bl cells [5]: 0.138 µg/mL
- IC50, titer in TZM.bl cells [6]: > 50 µg/mL
- IC80, titer in TZM.bl cells [6]: > 50 µg/mL
- IC50, titer in TZM.bl cells [7]: > 50 µg/mL
- IC80, titer in TZM.bl cells [7]: > 50 µg/mL
- IC50, titer in TZM.bl cells [8]: > 50 µg/mL
- IC80, titer in TZM.bl cells [8]: > 50 µg/mL
- IC50, titer in TZM.bl cells [9]: 0.016 µg/mL
- IC80, titer in TZM.bl cells [9]: 0.064 µg/mL
- IC50, titer in TZM.bl cells [10]: > 50 µg/mL
- IC80, titer in TZM.bl cells [10]: > 50 µg/mL
- IC50, titer in TZM.bl cells [11]: 0.002 µg/mL
- IC80, titer in TZM.bl cells [11]: 0.01 µg/mL
- IC50, titer in TZM.bl cells [12]: 0.008 µg/mL
- IC80, titer in TZM.bl cells [12]: 0.057 µg/mL
- IC50, titer in TZM.bl cells [13]: > 50 µg/mL
- IC80, titer in TZM.bl cells [13]: > 50 µg/mL
- IC50, titer in TZM.bl cells [14]: 0.005 µg/mL
- IC80, titer in TZM.bl cells [14]: 0.017 µg/mL
- IC50, titer in TZM.bl cells [15]: > 50 µg/mL
- IC80, titer in TZM.bl cells [15]: > 50 µg/mL
- IC50, titer in TZM.bl cells [16]: 0.008 µg/mL
- IC80, titer in TZM.bl cells [16]: 0.059 µg/mL
- IC50, titer in TZM.bl cells [24]: > 50 µg/mL
- IC80, titer in TZM.bl cells [24]: > 50 µg/mL
- IC50, titer in TZM.bl cells [17]: > 50 µg/mL
- IC80, titer in TZM.bl cells [17]: > 50 µg/mL
- IC50, titer in TZM.bl cells [18]: 3.15 µg/mL
- IC80, titer in TZM.bl cells [18]: 14.9 µg/mL
- IC50, titer in TZM.bl cells [19]: 0.013 µg/mL
- IC80, titer in TZM.bl cells [19]: 0.042 µg/mL
- IC50, titer in TZM.bl cells [20]: < 0.001 µg/mL
- IC80, titer in TZM.bl cells [20]: 0.048 µg/mL
- IC50, titer in TZM.bl cells [21]: 0.191 µg/mL
- IC80, titer in TZM.bl cells [21]: 0.929 µg/mL
- IC50, titer in TZM.bl cells [22]: > 50 µg/mL
- IC80, titer in TZM.bl cells [22]: > 50 µg/mL
- IC50, titer in TZM.bl cells [23]: > 50 µg/mL
- IC80, titer in TZM.bl cells [23]: > 50 µg/mL

Substance: N49P9 (antibody)
- IC50 [12]: 0.044 µg/mL
- IC80 [12]: 0.177 µg/mL
- MPI [12]: 100
- IC50 [25]: 0.074 µg/mL
- IC80 [25]: 0.244 µg/mL
- MPI [25]: 100
- IC50 [26]: 0.727 µg/mL
- IC80 [26]: 3.29 µg/mL
- MPI [26]: 100
- IC50 [16]: 0.194 µg/mL
- IC80 [16]: 0.591 µg/mL
- MPI [16]: 100
- IC50 [21]: 0.352 µg/mL
- IC80 [21]: 1.21 µg/mL
- MPI [21]: 100
